The results in this text go back to patent US20250170268A1 (Merck KGaA, published 2025).

The target in this experiment is T1, Human CEACAM5 protein (human, UniProt P06731 35-702).
T1 sequence: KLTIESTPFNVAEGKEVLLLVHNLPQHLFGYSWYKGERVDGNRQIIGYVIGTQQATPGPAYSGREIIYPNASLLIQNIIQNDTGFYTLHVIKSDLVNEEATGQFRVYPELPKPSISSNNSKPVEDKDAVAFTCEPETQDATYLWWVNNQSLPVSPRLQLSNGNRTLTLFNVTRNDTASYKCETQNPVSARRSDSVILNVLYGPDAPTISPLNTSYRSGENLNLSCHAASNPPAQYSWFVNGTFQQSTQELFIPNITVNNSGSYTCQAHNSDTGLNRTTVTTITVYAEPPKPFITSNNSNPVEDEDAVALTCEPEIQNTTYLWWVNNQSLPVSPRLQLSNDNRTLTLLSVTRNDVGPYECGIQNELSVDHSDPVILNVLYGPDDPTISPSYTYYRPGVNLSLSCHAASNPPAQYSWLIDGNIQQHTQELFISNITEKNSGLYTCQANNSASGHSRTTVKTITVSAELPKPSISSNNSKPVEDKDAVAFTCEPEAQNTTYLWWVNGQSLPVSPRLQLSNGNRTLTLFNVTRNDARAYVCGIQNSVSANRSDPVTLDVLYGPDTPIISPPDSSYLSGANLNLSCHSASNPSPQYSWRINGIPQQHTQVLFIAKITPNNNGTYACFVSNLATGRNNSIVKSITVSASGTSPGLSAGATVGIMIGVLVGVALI
Description: cell-based or functional assay.

B1: ADC8 (an analog of labetuzumab govitecan) (antibody, human IgG1, kappa)
heavy: not shown
light: DIQLTQSPSSLSASVGDRVTITCKASQDVGTSVAWYQQKPGKAPKLLIYWTSTRHTGVPSRFSGSGSGTDFTFTISSLQPEDIATYYCQQYSLYRSFGQGTKVEIKRTVAAPSVFIFPPSDEQLKSGTASVVCLLNNFYPREAKVQWKVDNALQSGNSQESVTEQDSKDSTYSLSSTLTLSKADYEKHKVYACEVTHQGLSSPVTKSFNRGEC
modifications: purchased drug-linker on reduced interchain cysteines; purchased drug-linker on reduced interchain cysteines, DAR of 7.7 for the whole antibody
On to B1, for which the “SPECIFICITY FACTOR (IC50 in MDA-MB-231 divided by IC50 in MKN-45)” value came out at 2.5 fold, the “SPECIFICITY FACTOR (IC50 in MDA-MB-231 divided by IC50 in SK-CO-1)” value came out at 4.8 fold and the “SPECIFICITY FACTOR (IC50 in MDA-MB-231 divided by IC50 in SNU-16)” value came out at 1.8 fold.
